Reference: patent US20190010242A1 (INHIBRX, published 2019)

How the values were obtained:
[1] = molecular target: T1, CD3 on the surface of primary human T cells (human, UniProt P07766 23-207); test: flow cytometry on primary human T cells
T1 construct: whole, on cells; CD3 is a multi-chain complex; also called CD3ε

B7H3 on A375 cells = molecular target: T2, B7H3 on A375 cells (UniProt Q5ZPR3 29-534, limits assumed); test: flow cytometry on A375 cells
T2 construct: whole, on cells; also called BH73
T2 sequence (looked up): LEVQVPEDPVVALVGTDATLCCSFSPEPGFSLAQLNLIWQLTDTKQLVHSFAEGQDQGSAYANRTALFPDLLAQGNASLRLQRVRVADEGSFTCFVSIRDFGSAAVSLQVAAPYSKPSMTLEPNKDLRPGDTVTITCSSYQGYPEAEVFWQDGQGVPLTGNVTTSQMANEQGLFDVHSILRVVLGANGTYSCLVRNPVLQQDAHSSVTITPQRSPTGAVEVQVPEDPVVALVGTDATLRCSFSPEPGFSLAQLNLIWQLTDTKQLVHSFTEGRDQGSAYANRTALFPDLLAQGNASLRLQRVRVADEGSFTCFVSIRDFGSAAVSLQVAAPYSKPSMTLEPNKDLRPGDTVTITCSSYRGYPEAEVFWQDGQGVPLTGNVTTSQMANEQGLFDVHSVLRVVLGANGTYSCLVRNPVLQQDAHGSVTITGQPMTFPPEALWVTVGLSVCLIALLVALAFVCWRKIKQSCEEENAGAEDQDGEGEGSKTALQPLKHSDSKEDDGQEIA

[2] = molecular target: T1, CD3 on the surface of primary human T …; test: flow cytometry on primary human T cells (FIGS. 14C and 14D)

T1 sequence (P07766 23-207): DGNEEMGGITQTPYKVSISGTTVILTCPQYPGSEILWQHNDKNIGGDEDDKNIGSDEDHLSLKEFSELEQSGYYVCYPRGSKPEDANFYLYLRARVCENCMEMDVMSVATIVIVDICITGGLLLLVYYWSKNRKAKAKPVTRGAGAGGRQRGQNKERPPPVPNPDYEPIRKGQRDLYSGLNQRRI

B1: Dual-affinity Re-targeting Antibody (DART)-monomeric Fc format targeting B7H3 and CD3 (bispecific antibody)
chain 1: DIQLTQSPSFLSASVGDRVTITCKASQNVDTNVAWYQQKPGKAPKALIYSASYRYSGVPSRFSGSGSGTDFTLTISSLQPEDFATYYCQQYNNYPFTFGQGTKLEIKGGGSGGGGEVQLVESGGGLVQPGGSLRLSCAASGFTFSTYAMNWVRQAPGKGLEWVGRIRSKYNNYATYYADSVKDRFTISRDDSKNSLYLQMNSLKTEDTAVYYCVRHGNFGNSYVSWFAYWGQGTLVTVSSGGCGGGEVAALEKEVAALEKEVAALEKEVAALEKGGGDKTHTCPPCPAPEAAGGPSVFLFPPKPKDTLMISRTPEVTCVVVDVSHEDPEVKFNWYVDGVEVHNAKTKPREEQYNSTYRVVSVLTVLHQDWLNGKEYKCKVSNKALPAPIEKTISKAKGQPREPQVYTLPPSREEMTKNQVSLWCLVKGFYPSDIAVEWESNGQPENNYKTTPPVLDSDGSFFLYSKLTVDKSRWQQGNVFSCSVMHEALHNHYTQKSLSLSPGK
chain 2: QAVVTQEPSLTVSPGGTVTLTCRSSTGAVTTSNYANWVQQKPGQAPRGLIGGTNKRAPWTPARFSGSLLGGKAALTITGAQAEDEADYYCALWYSNLWVFGGGTKLTVLGGGGSGGGGEVQLVESGGGLVQPGGSLRLSCAASGFTFSSFGMHWVRQAPGKGLEWVAYISSDSSAIYYADTVKGRFTISRDNAKNSLYLQMNSLRDEDTAVYYCGRGRENIYYGSRLDYWGQGTTVTVSSGGCGGGKVAALKEKVAALKEKVAALKEKVAALKE
chain 3: not shown
notes: also called DART-Fc B7H3×CD3; DART-Fc
B1: binds [1]; binds (B7H3 on A375 cells).

B2: cx3309 (CD20-targeting constrained CD3 engaging construct, GA101 scFvs) (bispecific antibody)
chain 1: not shown
chain 2: DKTHTCPPCPAPELLGGPSVFLFPPKPKDTLMISRTPEVTCVVVDVSHEDPEVKFNWYVDGVEVHNAKTKPREEQYNSTYRVVSVLTVLHQDWLNGKEYKCKVSNKALPAPIEKTISKAKGQPREPQVYTLPPCRDELTKNQVSLWCLVKGFYPSDIAVEWESNGQPENNYKTTPPVLDSDGSFFLYSKLTVDKSRWQQGNVFSCSVMHEALHNHYTQKSLSLSPTGGSGGGGIEPDIGGSGGSEVQLVESGGGLVQPGGSLRLSCAASGFTFNTYAMNWVRQAPGKCLEWVARIRSKYNNYATYYADSVKGRFTISRDDAKNTLYLQMSSLRAEDTAVYYCVRHGNFGNSYVSWFAYWGQGTLVTVKP
scFv: QVQLVQSGAEVKKPGSSVKVSCKASGYAFSYSWINWVRQAPGQGLEWMGRIFPGDGDTDYNGKFKGRVTITADKSTSTAYMELSSLRSEDTAVYYCARNVFDGYWLVYWGQGTLVTVSGSGGGGSGGGGTGGGGSDIVMTQTPLSLPVTPGEPASISCRSSKSLLHSNGITYLYWYLQKPGQSPQLLIYQMSNLVSGVPDRFSGSGSGTDFTLKISRVEAEDVGVYYCAQNLELPYTFGGGTKVEIK
notes: also called cx3490
B2: no binding (tested: 100 nM) [1].

B3: cx3314 (B7H3-targeting constrained CD3 engager, B7H3 scFv) (bispecific antibody)
chain 1: not shown
chain 2: DKTHTCPPCPAPELLGGPSVFLFPPKPKDTLMISRTPEVTCVVVDVSHEDPEVKFNWYVDGVEVHNAKTKPREEQYNSTYRVVSVLTVLHQDWLNGKEYKCKVSNKALPAPIEKTISKAKGQPREPQVYTLPPCRDELTKNQVSLWCLVKGFYPSDIAVEWESNGQPENNYKTTPPVLDSDGSFFLYSKLTVDKSRWQQGNVFSCSVMHEALHNHYTQKSLSLSPTGGSGGGGIEPDIGGSGGSEVQLVESGGGLVQPGGSLRLSCAASGFTFNTYAMNWVRQAPGKCLEWVARIRSKYNNYATYYADSVKGRFTISRDDAKNTLYLQMSSLRAEDTAVYYCVRHGNFGNSYVSWFAYWGQGTLVTVKP
scFv: EVQLVESGGGLVQPGGSLRLSCAASGFTFSSFGMHWVRQAPGKGLEWVAYISSDSSAIYYADTVKGRFTISRDNAKNSLYLQMNSLRDEDTAVYYCGRGRENIYYGSRLDYWGQGTTVTVSSSGGGGSGGGGSGGGGSDIQLTQSPSFLSASVGDRVTITCKASQNVDTNVAWYQQKPGKAPKALIYSASYRYSGVPSRFSGSGSGTDFTLTISSLQPEDFATYYCQQYNNYPFTFGQGTKLEIK
notes: also called cx3314 scFv
B3: no binding [2].

B4: cx3313 (B7H3-targeting constrained CD3 engager, B7H3 Fab) (bispecific antibody)
chain 1: not shown
chain 2: DKTHTCPPCPAPELLGGPSVFLFPPKPKDTLMISRTPEVTCVVVDVSHEDPEVKFNWYVDGVEVHNAKTKPREEQYNSTYRVVSVLTVLHQDWLNGKEYKCKVSNKALPAPIEKTISKAKGQPREPQVYTLPPCRDELTKNQVSLWCLVKGFYPSDIAVEWESNGQPENNYKTTPPVLDSDGSFFLYSKLTVDKSRWQQGNVFSCSVMHEALHNHYTQKSLSLSPTGGSGGGGIEPDIGGSGGSEVQLVESGGGLVQPGGSLRLSCAASGFTFNTYAMNWVRQAPGKCLEWVARIRSKYNNYATYYADSVKGRFTISRDDAKNTLYLQMSSLRAEDTAVYYCVRHGNFGNSYVSWFAYWGQGTLVTVKP
heavy: EVQLVESGGGLVQPGGSLRLSCAASGFTFSSFGMHWVRQAPGKGLEWVAYISSDSSAIYYADTVKGRFTISRDNAKNSLYLQMNSLRDEDTAVYYCGRGRENIYYGSRLDYWGQGTTVTVSSASTKGPSVFPLAPSSKSTSGGTAALGCLVKDYFPEPVTVSWNSGALTSGVHTFPAVLQSSGLYSLSSVVTVPSSSLGTQTYICNVNHKPSNTKVDKKVEPKSC
light: DIQLTQSPSFLSASVGDRVTITCKASQNVDTNVAWYQQKPGKAPKALIYSASYRYSGVPSRFSGSGSGTDFTLTISSLQPEDFATYYCQQYNNYPFTFGQGTKLEIKRTVAAPSVFIFPPSDEQLKSGTASVVCLLNNFYPREAKVQWKVDNALQSGNSQESVTEQDSKDSTYSLSSTLTLSKADYEKHKVYACEVTHQGLSSPVTKSFNRGEC
notes: also called cx3313 FAB
B4: no binding [2].
